B1: CPEB3 Ribozyme (parent)
chain: UAACAGGGGGCCACAGCAGAAGCGUUCACGUCGCAGCCCCUGUCAGAUUCUGGUGAAUCUGCGAAUUCUGCUGUAUAUCUC

This passage reports self-cleavage results from the RNAGym collection of RNA variant scans (doi:10.1093/nar/gkz1192).

This series covers variants of B1. In words: self-cleavage, relative activity (ratio to wild type); higher = more cleavage; in vitro, sequencing. A digest of the protocol: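 After error-prone PCR and barcoding, CPEB3 ribozyme mutant libraries were transcribed with T7 RNA polymerase at 37°C for 5 hours, then given 15 min with DNase I before an EDTA stop, and they cleaved during both steps. Reverse transcription with template switching preceded Illumina sequencing. Relative activity divides a variant's cleaved/total read fraction by the unmutated ribozyme's. At least 5 reads were required per variant, and three batches were averaged.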
Take UAACAGGGGGCCACAGCUGAAGCGUUCACGUCGCAGCCCCUGUCAGAUUCUGGUGAAUCUGCGAAUUCUGCUGUAAAUCUC: the self-cleavage was 0.36. Then UAACAGGGGGCCACAGCUGAAGCGUUCACGUCGCAGCCCCUGUCAGAUUCUGGUGAAUCUGCGAAUUCUGCUGUACAUCUC, with 0.39; and UAACAGGGGGCCACAGCUGAAGCGUUCACGUCGCAGCCCCUGUCAGAUUCUGGUGAAUCUGCGAAUUCUGCUGUAGAUCUC, with 0.3; and UAACAGGGGGCCACAGCUGAAGCGUUCACGACGCAGCCCCUGUCAGAUUCUGGUGAAUCUGCGAAUUCUGCUGUAUAUCUC, with 0.3. Next, UAACAGGGGGCCACAGCUGAAGCGUUCACGCCGCAGCCCCUGUCAGAUUCUGGUGAAUCUGCGAAUUCUGCUGUAUAUCUC: 0.26; UAACAGGGGGCCACAGCUGAAGCGUUCACGGCGCAGCCCCUGUCAGAUUCUGGUGAAUCUGCGAAUUCUGCUGUAUAUCUC: 0.17; UAACAGGGGGCCACAGCAAAAGCGUUCACGUCGCAGCCCCUGUCAGAUUCUGGUGAAUCUGCGAAUUCUGCUGUAUAUCUC: 0.29.

Regarding UAACAGGGGGCCACAGCUGAAGCGUUCACGUCGCAGCCCCUGUCAGAUUCUGGUGAAUCCGCGAAUUCUGCUGUAUAUCUC, the self-cleavage came out at 0.22. Consider UAACAGGGGGCCACAGCUGAAGCGUUCACGUCGCAGCCCCUGUCAGAUUCUGGUGAAUCAGCGAAUUCUGCUGUAUAUCUC, for which the self-cleavage is 0.3. As for UAACAGGGGGCCACAGCUGAAGCGUUCACGUCGCAGCCCCUGUCAGAUUCUGGUAAAUCUGCGAAUUCUGCUGUAUAUCUC, the self-cleavage turned out to be 0.29. Then UAACAGGGGGCCACAGCUGAAGCGUUCACGUCGCAGCCCCUGUCAGAUUCUGGUUAAUCUGCGAAUUCUGCUGUAUAUCUC, with 0.41; and UAACAGGGGGCCACAGCUGAAGCGUUCACGUCGCAGCCCCUGUCAGAUUCUGGUGAAUCUGCGAAUUCUGCUCUAUAUCUC, with 0.49. On to UAACAGGGGGCCACAGCUGAAGCGUUCACGUCGCAGCCCCUGUCAGAUUCUGGUGAAUCUGCGAAUUCUGCUAUAUAUCUC, for which the self-cleavage is 0.61. As for UAACAGGGGGCCACAGCUGAAGCGUUCACGUCGCAGCCCCUGUCAGAUUCUGUUGAAUCUGCGAAUUCUGCUGUAUAUCUC, the self-cleavage was 0.45.

For the variant UAACAGGGGGCCACAGCUGAAGCGUUCACGUCGCAGCCCCUGUCAGAUACUGGUGAAUCUGCGAAUUCUGCUGUAUAUCUC, the self-cleavage worked out at 0.38. On to UAACAGGGGGCCACAGCUGAAGCGUUCACGUCGCAGCCCCUGUCAGAUCCUGGUGAAUCUGCGAAUUCUGCUGUAUAUCUC, for which the self-cleavage came to 0.22. Then UAACAGGGGGCCACAGCUGAAGCGUUCACGUCGCAGCCCCUGUCAGAUUCUGGUGAAUCUGCGAAUUCUGCUGCAUAUCUC, with 0.61; and UAACAGGGGGCCACAGCUGAAGCGUUCACGUCGCAGCCCCUGUCAGAUUCUGGUGAAUCUGCGAAUUCUGCUGAAUAUCUC, with 0.62; and UAACAGGGGGCCACAGCUGAAGCGUUCACGUCGCAGCCCCUGGCAGAUUCUGGUGAAUCUGCGAAUUCUGCUGUAUAUCUC, with 0.14. Take UAACAGGGGGCCACAGCUGAAGCGUUCACGUCGCAGCCCCUGCCAGAUUCUGGUGAAUCUGCGAAUUCUGCUGUAUAUCUC: the self-cleavage came to 0.26.

Regarding UAACAGGGGGCCACAGCUGAAGCGUUCACGUCGCAGCCCCUGACAGAUUCUGGUGAAUCUGCGAAUUCUGCUGUAUAUCUC, the self-cleavage came out at 0.64. UAACAGGGGGCCACAGCUGAAGCGUUCACGUCGCAGCCCCUGUCAGAUUCUGGUGAAUCUGCGAAUUCUGCAGUAUAUCUC: the self-cleavage is 0.19.

With UAACAGGGGGCCACAGCUGAAGCGUUCACGUCGCAGCCCCUGUCAGAUUCUGGUGAAUCUGCGAAUUCUGCCGUAUAUCUC, the self-cleavage was 0.42. UAACAGGGGGCCACAGCUGAAGCGUUCACGUCGCAGCCCCUGUCAGAUUCUGGUGAAUCUGCGAAUUCUGCGGUAUAUCUC: the self-cleavage worked out at 0.5.

Consider UAACAGGGGGCCACAGCUGAAGCGUUCACGUCGCAGCCCCUGUCAGAAUCUGGUGAAUCUGCGAAUUCUGCUGUAUAUCUC, for which the self-cleavage amounted to 0.19. Then UAACAGGGGGCCACAGCUGAAGCGUUCACGUCGCAGCCCCUGUCAGACUCUGGUGAAUCUGCGAAUUCUGCUGUAUAUCUC, with 0.28; and UAACAGGGGGCCACAGCUGAAGCGUGCACGUCGCAGCCCCUGUCAGAUUCUGGUGAAUCUGCGAAUUCUGCUGUAUAUCUC, with 0.07.

As to UAACAGGGGGCCACAGCUGAAGCGUACACGUCGCAGCCCCUGUCAGAUUCUGGUGAAUCUGCGAAUUCUGCUGUAUAUCUC, the self-cleavage is 0.31.

As for UAACAGGGGGCCACAGCUGAAGCGUCCACGUCGCAGCCCCUGUCAGAUUCUGGUGAAUCUGCGAAUUCUGCUGUAUAUCUC, the self-cleavage is 0.26.

For the variant UAACAGGGGGCCACAGCAAAAGCGUUCACGUCGCAGCCCCUGUCUGAUUCUGGUGAAUCUGCGAAUUCUGCUGUAUAUCUC, the self-cleavage was 0.07.

For UAACAGGGGGCCACAGCAAAAGCGUUCACGUCGCAGCCCCUGUCGGAUUCUGGUGAAUCUGCGAAUUCUGCUGUAUAUCUC, the self-cleavage is 0.25.

UAACAGGGGGCCACAGCUGAAGCGUUCACGUCGCAGCCCCUGUCAGAUUCCGGUGAAUCUGCGAAUUCUGCUGUAUAUCUC: the self-cleavage is 0.42. For the variant UAACAGGGGGCCACAGCUGAAGCGUUCACGUCGCAGCCCCUGUCAGAUUCAGGUGAAUCUGCGAAUUCUGCUGUAUAUCUC, the self-cleavage is 0.41. UAACAGGGGGCCACAGCUGAAGCGUUCACGUCGCAGCCCCUGUCAGAUUCUGGUGAAUCUGCGAAUUCUGCUGUAUAUCCC: the self-cleavage came to 0.52.

With UAACAGGGGGCCACAGCUGAAGCGUUCACGUCGCAGCCCCUGUCAGAUUCUGGUGAAUCUGCGAAUUCUGCUGUAUAUCAC, the self-cleavage was found to be 0.53. With UAACAGGGGGCCACAGCUGAAGCGUUCACGUCGCAGCCCCUGUCAGAUUCUGGUGAAUCUGCGAAUUCUGCUGUAUAUCGC, the self-cleavage came out at 0.51.

As to UAACAGGGGGCCACAGCUGAAGCGUUCACGUCGCAGCCCCUGUCAGAUUCUGGAGAAUCUGCGAAUUCUGCUGUAUAUCUC, the self-cleavage amounted to 0.54. As for UAACAGGGGGCCACAGCUGAAGCGUUCACGUCGCAGCCCCUGUCAGAUUCUGGCGAAUCUGCGAAUUCUGCUGUAUAUCUC, the self-cleavage was 0.32. Turning to UAACAGGGGGCCACAGCUGAAGCGUUCACGUCGCAGCCCCUGUCAGAUUCUGGGGAAUCUGCGAAUUCUGCUGUAUAUCUC, the self-cleavage was 0.34.

With UAACAGGGGGCCACAGCUGAAGCGUUCACGUCGCAGCCCCUGUCAGAUUCUGGUGAAUCUGCGAAUUCCGCUGUAUAUCUC, the self-cleavage amounted to 0.47. With UAACAGGGGGCCACAGCUGAAGCGUUCACGUCGCAGCCCCUGUCAGAUUCUGGUGAAUCUGCGAAUUCGGCUGUAUAUCUC, the self-cleavage was 1.14.

Turning to UAACAGGGGGCCACAGCUGAAGCGUUCACGUCGCAGCCCCUGUCAGAUUCUGGUGAAUCUGCGAAUUCAGCUGUAUAUCUC, the self-cleavage came out at 1.19. For the variant UAACAGGGGGCCACAGCUGAAGCGUUCACGUCGCAGCCCCUGUCAGAUUCUGGUGAAUCUGCGAAUGCUGCUGUAUAUCUC, the self-cleavage is 0.19. Next, UAACAGGGGGCCACAGCUGAAGCGUUCACGUCGCAGCCCCUGUCAGAUUCUGGUGAAUCUGCGAAUCCUGCUGUAUAUCUC: 0.26. On to UAACAGGGGGCCACAGCUGAAGCGUUCACGUCGCAGCCCCUGUCAGAUUCUGGUGAAUCUGCGAAUACUGCUGUAUAUCUC, for which the self-cleavage is 0.21.

With UAACAGGGGGCCACAGCUGAAGCGUUCACGUCGCAGCCCCCGUCAGAUUCUGGUGAAUCUGCGAAUUCUGCUGUAUAUCUC, the self-cleavage amounted to 0.38. Then UAACAGGGGGCCACAGCUGAAGCGUUCACGUCGCAGCCCCAGUCAGAUUCUGGUGAAUCUGCGAAUUCUGCUGUAUAUCUC, with 0.22; and UAACAGGGGGCCACAGCUGAAGCGGUCACGUCGCAGCCCCUGUCAGAUUCUGGUGAAUCUGCGAAUUCUGCUGUAUAUCUC, with 0.08; and UAACAGGGGGCCACAGCUGAAGCGCUCACGUCGCAGCCCCUGUCAGAUUCUGGUGAAUCUGCGAAUUCUGCUGUAUAUCUC, with 0.26. Take UAACAGGGGGCCACAGCUGAAGCGAUCACGUCGCAGCCCCUGUCAGAUUCUGGUGAAUCUGCGAAUUCUGCUGUAUAUCUC: the self-cleavage stood at 0.19. UAACAGGGGGCCACAGCAAUAGCGUUCACGUCGCAGCCCCUGUCAGAUUCUGGUGAAUCUGCGAAUUCUGCUGUAUAUCUC: the self-cleavage was 0.11. For the variant UAACAGGGGGCCACAGCUGAAGCGUUCACGUCGCAGCCCCUGUCAGAUUCUGGUGAAUCUUCGAAUUCUGCUGUAUAUCUC, the self-cleavage was 0.28. On to UAACAGGGGGCCACAGCUGAAGCGUUCACGUCGCAGCCCCUGUCAGAUUCUGGUGAAUCUACGAAUUCUGCUGUAUAUCUC, for which the self-cleavage was determined as 0.3. Turning to UAACAGGGGGCCACAGCUGAAGCGUUCACGUCGCAGCCCCUGUCAGAUUCUGGUGAAUCUCCGAAUUCUGCUGUAUAUCUC, the self-cleavage is 0.14.

Regarding UAACAGGGGGCCACAGCAAAAGCGUUCACGUCGCUGCCCCUGUCAGAUUCUGGUGAAUCUGCGAAUUCUGCUGUAUAUCUC, the self-cleavage is 0.17.

As to UAACAGGGGGCCACAGCAAAUGCGUUCACGUCGCAGCCCCUGUCAGAUUCUGGUGAAUCUGCGAAUUCUGCUGUAUAUCUC, the self-cleavage stood at 0.1. In the case of UAACAGGGGGCCACAGCUGAAGCGUUCACGUCGCAGCCCCUGUCAGAUUCUGGUGAAUCUGCUAAUUCUGCUGUAUAUCUC, the self-cleavage amounted to 0.57. Consider UAACAGGGGGCCACAGCUGAAGCGUUCACGUCGCAGCCCCUGUCAGAUUCUGGUGAAUCUGCCAAUUCUGCUGUAUAUCUC, for which the self-cleavage was determined as 0.37.

As to UAACAGGGGGCCACAGCUGAAGCGUUCACGUCGCAGCCCCUGUCAGAUUCUGGUGAAUCUGCAAAUUCUGCUGUAUAUCUC, the self-cleavage was determined as 0.48.

UAACAGGGGGCCACAGCUGAAGCGUUCACGUCGCAGCCCCUGUCAGAUUCUGGUGAACCUGCGAAUUCUGCUGUAUAUCUC: the self-cleavage came out at 0.32. With UAACAGGGGGCCACAGCUGAAGCGUUCACGUCGCAGCCCCUGUCAGAUUCUGGUGAAGCUGCGAAUUCUGCUGUAUAUCUC, the self-cleavage worked out at 0.03. For UAACAGGGGGCCACAGCUGAAGCGUUCACGUCGCAGCCCCUGUCAGAUUCUGGUGAAACUGCGAAUUCUGCUGUAUAUCUC, the self-cleavage was 0.19. For the variant UAACAGGGGGCCACAGCUGAAGCGUUCACGUCGCAGCCCCUGUCAGAUUCUGGUGAAUCUGCGAACUCUGCUGUAUAUCUC, the self-cleavage turned out to be 0.29. Then UAACAGGGGGCCACAGCUGAAGCGUUCACGUCGCAGCCCCUGUCAGAUUCUGGUGAAUCUGCGAAAUCUGCUGUAUAUCUC, with 0.29; and UAACAGGGGGCCACAGCUGAAGCGUUCACGUCGCAGCCCCUGUCAGAUUCUGGUGAAUCUGCGAAUUCUGCUGUAUAACUC, with 0.36; and UAACAGGGGGCCACAGCUGAAGCGUUCACGUCGCAGCCCCUGUCAGAUUCUGGUGAAUCUGCGAAUUCUGCUGUAUACCUC, with 0.38. UAACAGGGGGCCACAGCUGAAGCGUUCACGUCGCAGCCCCUGUCAGAUUCUGGUGAAUCUGCGAAUUCUUCUGUAUAUCUC: the self-cleavage amounted to 0.21.

UAACAGGGGGCCACAGCAAAAGCGUUCGCGUCGCAGCCCCUGUCAGAUUCUGGUGAAUCUGCGAAUUCUGCUGUAUAUCUC: the self-cleavage came to 0.2.
